The text below walks through data of patent publication US20100240066A1 (MCGILL UNIVERSITY, published 2010).

What all share (test): phage ELISA
(In general: In an ELISA, binding on a coated surface is turned into a signal by an enzyme label.)

Experiment [1] deals with T1, N-cadherin/Fc chimeric protein (human, UniProt P19022 160-724).
T1 construct: range 160-724; Bought from R&D Systems; also called N-cad/Fc; human N-cadherin/Fc chimeric protein; not shown: Fc region of human IgG1
T1 sequence (looked up): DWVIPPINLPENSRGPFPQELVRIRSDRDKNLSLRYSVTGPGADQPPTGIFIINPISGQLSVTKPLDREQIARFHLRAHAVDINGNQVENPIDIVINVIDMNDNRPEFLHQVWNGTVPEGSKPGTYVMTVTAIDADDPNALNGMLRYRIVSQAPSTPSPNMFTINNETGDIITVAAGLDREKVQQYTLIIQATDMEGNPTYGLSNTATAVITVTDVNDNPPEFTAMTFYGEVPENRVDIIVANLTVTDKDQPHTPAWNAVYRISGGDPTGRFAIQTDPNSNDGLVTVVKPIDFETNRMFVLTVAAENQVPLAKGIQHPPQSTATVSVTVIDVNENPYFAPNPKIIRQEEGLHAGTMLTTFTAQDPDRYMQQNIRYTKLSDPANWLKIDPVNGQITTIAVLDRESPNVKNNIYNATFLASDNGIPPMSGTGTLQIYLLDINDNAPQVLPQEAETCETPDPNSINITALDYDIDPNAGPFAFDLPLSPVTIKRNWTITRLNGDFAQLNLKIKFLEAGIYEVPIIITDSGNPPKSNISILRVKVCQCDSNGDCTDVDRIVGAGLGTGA
The method, then:
(§1) The binding of each clone to the cadherin/Fc chimeric proteins was confirmed by ELISA. Wells of ProBind microtiter plates (Falcon) were coated with either N-cadherin/Fc or E-cadherin/Fc chimeric protein (100 ng/well) or human IgG1 (which contains the Fc fragment) (100 ng/well). After blocking the nonspecific sites with TBS containing 3% BSA and 1.2 mM CaCl₂ for 1 h at 37° C., phage clones (10⁹ pfu) diluted in TBST containing 3% BSA and 1.2 mM CaCl₂ (100 μl/well). Non-coated wells were also used to exclude any phage that bound to the plastic surface. After 1 h incubation at room temperature, wells were washed 3 times with TBST containing 3% BSA and 1.2 mM CaCl₂. M13 phage without any insert were used to control the non-specific binding of the phage itself to the target. Monoclonal anti-M13 antibody conjugated to horseradish peroxidase (Amersham Biosciences, Piscataway, N.J.) was diluted in TBST containing 3% BSA and 1.2 mM CaCl₂ (1:2,000) and added to each well (100 μl/well). After 1 h incubation at room temperature, wells were washed three times with TBST containing 3% BSA and 1.2 mM CaCl₂ and once with TBS containing 1.2 mM CaCl₂. Horseradish peroxidase substrate, TMB (Sigma), was added to each well (100 μl/well and after color development the reaction was stopped by addition of 100 μl 0.5 M sulphuric acid to each well. The intensity of the color was measured at 450 nm.
(§2) The phage clones shown to bind to the N-cadherin/Fc chimeric protein by ELISA were also evaluated for their ability to bind to E-cadherin/Fc and VE-cadherin/Fc chimeric proteins. The phage clones shown to bind to the E-cadherin/Fc chimeric protein by ELISA were also evaluated for their ability to bind to N-cadherin/Fc and VE-cadherin/Fc chimeric proteins. The same ELISA protocol described in the previous section was used to perform this evaluation with the exception that the wells were coated with either 100 ng N-cadherin/Fc, E-cadherin/Fc or VE-cadherin/Fc chimeric protein (R&D Systems, Minneapolis, Minn.).

The target in experiment [2] is T2, E-cadherin/Fc chimeric protein (human, UniProt P12830 155-707).
T2 construct: range 155-707; Bought from R&D Systems; also called E-cad/Fc; human E-cadherin/Fc chimeric protein; not shown: Fc region of human IgG1
T2 sequence (looked up): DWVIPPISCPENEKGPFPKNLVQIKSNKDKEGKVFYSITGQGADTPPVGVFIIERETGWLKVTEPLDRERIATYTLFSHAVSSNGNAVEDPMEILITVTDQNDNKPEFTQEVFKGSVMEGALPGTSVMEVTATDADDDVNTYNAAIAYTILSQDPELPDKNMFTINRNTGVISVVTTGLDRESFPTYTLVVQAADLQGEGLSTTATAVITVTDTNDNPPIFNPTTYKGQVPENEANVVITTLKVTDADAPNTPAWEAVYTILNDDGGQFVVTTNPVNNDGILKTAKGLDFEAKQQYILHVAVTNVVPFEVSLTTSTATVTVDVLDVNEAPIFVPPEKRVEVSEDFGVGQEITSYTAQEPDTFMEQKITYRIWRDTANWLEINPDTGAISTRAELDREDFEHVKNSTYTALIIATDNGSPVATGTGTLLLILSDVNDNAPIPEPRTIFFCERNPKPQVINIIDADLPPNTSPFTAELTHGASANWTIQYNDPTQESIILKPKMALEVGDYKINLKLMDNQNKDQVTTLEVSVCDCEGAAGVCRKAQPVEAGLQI
The method, then: as §1, §2

Experiment [3] deals with T3, VE-cadherin/Fc chimeric protein (UniProt P33151 48-593).
T3 construct: Bought from R&D Systems; also called vascular endothelial (VE)-cadherin/Fc chimeric protein; not shown: Fc part not described
T3 sequence (looked up): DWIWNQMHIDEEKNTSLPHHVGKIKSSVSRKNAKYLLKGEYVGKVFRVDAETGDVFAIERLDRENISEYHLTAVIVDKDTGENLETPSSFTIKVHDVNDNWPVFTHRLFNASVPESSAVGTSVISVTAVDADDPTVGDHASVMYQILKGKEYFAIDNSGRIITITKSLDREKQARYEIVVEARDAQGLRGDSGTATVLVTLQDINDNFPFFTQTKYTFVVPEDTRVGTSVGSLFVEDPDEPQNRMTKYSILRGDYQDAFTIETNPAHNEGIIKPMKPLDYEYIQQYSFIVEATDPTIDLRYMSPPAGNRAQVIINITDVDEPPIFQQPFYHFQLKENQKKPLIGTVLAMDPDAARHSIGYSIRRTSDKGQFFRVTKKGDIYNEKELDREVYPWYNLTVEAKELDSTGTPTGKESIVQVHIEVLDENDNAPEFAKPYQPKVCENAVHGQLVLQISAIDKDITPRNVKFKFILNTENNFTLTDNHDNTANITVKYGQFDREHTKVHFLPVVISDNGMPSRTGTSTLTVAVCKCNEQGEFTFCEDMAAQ
How it is done: as §1, §2

Where no end group is shown, it is not given here.

Turning to AWTWSLPTLPQS (whole phage in the assay) [phage clone Ec 12-a5], the figures for the binding result in experiment [1], in experiment [2] and in experiment [3] were “binds”, “binds” and “no binding (tested: 10^9 pfu)”, respectively.
On to EWTWVFPTTHTS (whole phage in the assay) [phage clone Ec 12-07], for which the binding result in experiment [1] is reported as “binds”; in experiment [2], “binds”; in experiment [3], “no binding (tested: 10^9 pfu)”.
As to SWTFYWPDAQLG (whole phage in the assay) [phage clone Ec 12-06], the binding result is given as “binds” in experiment [1], “binds” in experiment [2] and “no binding (tested: 10^9 pfu)” in experiment [3].
With EWQYHWPTLQSR (whole phage in the assay) [phage clone Ec 12-22], the binding result was “binds” in experiment [1], “binds” in experiment [2] and “no binding (tested: 10^9 pfu)” in experiment [3].
Take QWQLHWPASKQA (whole phage in the assay) [phage clone Ec 12-11]: the values for the binding result in experiment [1], in experiment [2] and in experiment [3] were “binds”, “binds” and “no binding (tested: 10^9 pfu)”, respectively.
In the case of SWTWHFPESPPP (whole phage in the assay) [phage clone Ec 12-01], the results for the binding result in experiment [1], in experiment [2] and in experiment [3] were “binds”, “binds” and “no binding (tested: 10^9 pfu)”, respectively.
In the case of SWELYYPLRANL (whole phage in the assay) [phage clone Ec 12-a2], the binding result in experiment [1] was “binds”; in experiment [2] it was “binds”; in experiment [3] it was “no binding (tested: 10^9 pfu)”.

B1: phage clone Ec 4 (peptide)
peptide: WQMVLCPAC
modifications: not fully specified; cysteine pairing not given here; also: displayed on M13 phage pIII
notes: whole phage in the assay
For B1, the binding result in experiment [1] was “binds”; in experiment [2], “binds”; in experiment [3], “no binding (tested: 10^9 pfu)”.
For QWEIRYPWPSMG (whole phage in the assay) [phage clone Ec 12-a1], the binding result in experiment [1] is “binds”; in experiment [2], “binds”; in experiment [3] it was “no binding (tested: 10^9 pfu)”.
Consider QWEWHYMAGYLA (whole phage in the assay) [phage clone Ec 12-15], for which the results for the binding result in experiment [1], in experiment [2] and in experiment [3] were “binds”, “binds” and “no binding (tested: 10^9 pfu)”, respectively.
With QWTYYLPLTPRW (whole phage in the assay) [phage clone Ec 12-a4], the results for the binding result in experiment [1], in experiment [2] and in experiment [3] were “binds”, “binds” and “no binding (tested: 10^9 pfu)”, respectively.
For EWDFFWPPTQTP (whole phage in the assay) [phage clone Ec 12-19], the binding result in experiment [1] is “binds”; in experiment [2] it was “binds”; in experiment [3], “no binding (tested: 10^9 pfu)”.

B2: phage clone Ec 2 (peptide)
peptide: WQFCYAQHC
modifications: not fully specified; cysteine pairing not given here; also: displayed on M13 phage pIII
notes: whole phage in the assay
With B2, the binding result is on record as “binds” in experiment [1], “binds” in experiment [2] and “no binding (tested: 10^9 pfu)” in experiment [3].
Regarding EWTYTFPTAHSI (whole phage in the assay) [phage clone Ec 12-a18], the binding result in experiment [1] is reported as “binds”; in experiment [2], “binds”; in experiment [3] it was “no binding (tested: 10^9 pfu)”.
As to EWFWSWPGYSNT (whole phage in the assay) [phage clone Ec 12-a13], the binding result in experiment [1] is given as “binds”; in experiment [2], “binds”; in experiment [3], “no binding (tested: 10^9 pfu)”.
For the molecule SWEWYIPYLNRT (whole phage in the assay) [phage clone Ec 12-a11], the binding result in experiment [1] was “binds”; in experiment [2], “binds”; in experiment [3], “no binding (tested: 10^9 pfu)”.

B3: phage clone Ec 7 (peptide)
peptide: WTMCYPDTC
modifications: not fully specified; cysteine pairing not given here; also: displayed on M13 phage pIII
notes: whole phage in the assay
As to B3, the binding result in experiment [1] is listed as “binds”; in experiment [2], “binds”; in experiment [3], “no binding (tested: 10^9 pfu)”.
In the case of EWTFQWNSYPAD (whole phage in the assay) [phage clone Ec 12-10], the binding result in experiment [1] is recorded as “binds”; in experiment [2], “binds”; in experiment [3], “no binding (tested: 10^9 pfu)”.
With GWTVFYPDNLRP (whole phage in the assay) [phage clone Ec 12-18], the results for the binding result in experiment [1], in experiment [2] and in experiment [3] were “binds”, “binds” and “no binding (tested: 10^9 pfu)”, respectively.

B4: phage clone Ec 12-13 (peptide)
peptide: QWTITYPKPPAL
notes: whole phage in the assay; also called QWTITYPKPPAL
B4: the binding result is recorded as “binds” in experiment [1], “binds” in experiment [2] and “no binding (tested: 10^9 pfu)” in experiment [3].
